Measured values from the supplement of paper PMC9170038.

Assays:
Settings in all cases: FMN input: 0 or 200 uM; Eterna round: R93 (includes R88 designs)
[1] = tested on: MS2 coat protein; test: apparent KD of MS2 coat protein, switch OFF state (with FMN for OFF switches, without FMN for ON switches); designed switch direction (-1 OFF switch, 1 ON switch): 1; higher = weaker reporter binding
How it was run: (§1)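 Each design's apparent KD comes from the median of binding-curve fits to its normalised clusters. Those clusters carried RNA switches transcribed on-chip from Illumina sequencing clusters. SNAP-549-labelled MS2 coat protein was titrated onto them in twofold steps (0.7 or 1.5 nM to 3 µM; per step 0.8–1.5 h down to 10–20 min). Conditions were 100 mM Tris-HCl pH 7.5, 80 mM KCl, 4 mM MgCl2, without or with constant ligand.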

[2] = tested on: MS2 coat protein; test: apparent KD of MS2 coat protein, switch ON state; designed switch direction (-1 OFF switch, 1 ON switch): 1; higher = weaker reporter binding
How it was run: as §1

[3] = tested on: MS2 coat protein; test: apparent KD of MS2 coat protein, switch OFF state (with FMN for OFF switches, without FMN for ON switches); designed switch direction (-1 OFF switch, 1 ON switch): -1; higher = weaker reporter binding
How it was run: as §1

[4] = tested on: MS2 coat protein; test: apparent KD of MS2 coat protein, switch ON state; designed switch direction (-1 OFF switch, 1 ON switch): -1; higher = weaker reporter binding
How it was run: as §1

Row | Sequence | apparent KD of MS2 coat protein [1] | apparent KD of MS2 coat protein [2] | apparent KD of MS2 coat protein [3] | apparent KD of MS2 coat protein [4]
1 | AAAAAAAAAACGCAGGAUAUCCAAAAAAAAACAUGAGGAUCACCCAUGUAAAAAAAAAAAAAAUGGGAGAAGGGUGAAAAAAAAAA [Louisiana 6 - Jieux - Same State 2] | 0.114 µM | 0.0499 µM | – | –
2 | AAAAAAAAAAGACAGGAUAUACAAUAUAUUACAUGAGGAUCACCCAUGUUUUUUUUUUAAUUAAAGUAGAAGGGUCAAAAAAAAAA [SS 2.1] | 0.0303 µM | 0.0256 µM | – | –
3 | AAAAAAAAAAGACAGGAUAUCCAAAAAAAAACAUGAGGAUCACCCAUGUAAAAAAAAAAAAAGUGGGAGAAGGGUCAAAAAAAAAA [Louisiana 4 - Jieux - Same State 2] | 0.0384 µM | 0.0249 µM | – | –
4 | AAAAAAAAAAGUCAGGAUAUACAAAUUUUUACAUGAGGAUCACCCAUGUUAAGGAAAAAAAAAAAGUAGAAGGGACAAAAAAAAAA [Same State 2 - Omei 3] | 0.0214 µM | 0.0153 µM | – | –
5 | AAAAAAAAAAGUGAGGAUAUGGGAAAAUUAACAUGAGGAUCACCCAUGUGAUAAAAAAAAAAAAACCAGAAGGUACAAAAAAAAA [Original 73%, More Wateronthemoon, 1] | 0.0423 µM | 0.016 µM | – | –
6 | AAAAAAAAAAGUGAGGAUAUGGGAAAAUUAACAUGAGGAUCACCCAUGUGAUAAAAAAAAAAAAACCAGAAGGUACAAAAAAAAAA [Same 2] | 0.035 µM | 0.0261 µM | – | –
7 | AAAAAACAUGAGGAUCACCCAUGUAAAAAAACAUGAGGAUAUAUAAAAAAAAAAAAAAAGAUAGAAGGCAUAAAUA [JR_SS001_Sub1201] | 0.0774 µM | 0.128 µM | – | –
8 | AAAAAACAUGAGGAUCACCCAUGUAAAAAAAUCGCAGGAUAUACGGUCGCGAAAGCGACCGUAGAAGGGCGAUCCU [Louisiana 3 - Jieux - Same State 1] | 0.0753 µM | 0.0591 µM | – | –
9 | AAAAAACAUGAGGAUCACCCAUGUAAUAAAACGUCAGGAUAUUGAUUUUAUUAUUUAUUACAAGAAGGGACAAAAA [Same State 1 - Omei 1] | 0.055 µM | 0.035 µM | – | –
10 | AAAAAACAUGAGGAUCACCCAUGUAAUACAACAUCAGGAUAUUGAUUUUACUAUGUAUUGCAAGAAGGGAUGAAAA [Same State 1.3a (Same State 1 - Omei 2 )] | 0.0452 µM | 0.0712 µM | – | –
11 | AAAAAACAUGAGGAUCACCCAUGUAGAAAUAUGGGAGGAUAUGGAAACACGAAAGUGAAACCAGAAGGCUCAAAAG [77%, Mat - Mod of Eli, 8] | 0.0695 µM | 0.0266 µM | – | –
12 | AAAAAACAUGAGGAUCACCCAUGUCGAAAGACAUGAGGAUAUGUACAGACUUCGGUCUGUACAGAAGGCAUGAAAA [SS1 - 1012] | 0.0793 µM | 0.114 µM | – | –
13 | AAAAAACAUGAGGAUCACCCAUGUCUUCGGACGUGAGGAUAUGUACAGACUUCGGUCUGUACAGAAGGCAUGUAAA [SS1 - 1052] | 0.186 µM | 0.286 µM | – | –
14 | AAAAAAGAUCUAGAGGAUAUCCGAGUGGUAACAUGAGGAUCACCCAUGUGAAGAAAGGAACAUGAGGAGAAGGCUAGAUCAAAAA [JL Nando Mod 1] | 0.0107 µM | 0.00787 µM | – | –
15 | AAAAAAUAAAAAAAGGAUAUAAUGCUACAGACAUGAGGAUCACCCAUGUAGGUAGCAAAAAUAAAAAAGAAGGAAAAAUAAAAAA [SS2: MS2 31] | 0.0131 µM | 0.0114 µM | – | –
16 | AAAAACGUGGCGUAGGAUAUACUAAUAUUCACAUGAGGAUCACCCAUGUUCAUAUAUAUGAACGAGUAGAAGGACGACGAAAAAA [Mat - Same state - Malcolm Mod - D106] | 0.107 µM | 0.0295 µM | – | –
17 | AAAACACAUGAGGAUCACCCAUGUAGAAAUACGGGAGGAUAUGCGAAAACGAAAGACAAAGCAGAAGGCCUAAAAG [saturn 6] | 0.035 µM | 0.0123 µM | – | –
18 | AAAACACAUGAGGAUCACCCAUGUGCAAAAUUCGCAGGAUAUUCCUCAAUUAAAUGAAAGGAAGAAGGGUGAUAAA [Nob's Hobby 32 - Jieux - Same State 1] | 0.0502 µM | 0.0178 µM | – | –
19 | AAAAGACAUGAGGAUCACCCAUGUAAAAACAUAGGAGGAUAUGUCUUGAAAAAAGACUUGACAGAAGGCCUUUGUC [SS1 - 52] | 0.0752 µM | 0.0395 µM | – | –
20 | AAAAGACAUGAGGAUCACCCAUGUCAAAAGACAUGAGGAUAUGUACAGACUUCGGUCUGUACAGAAGGCAUAAAAA [SS1 - 1060] | 0.0325 µM | 0.0186 µM | – | –
21 | AAAAGACAUGAGGAUCACCCAUGUCCUCGGACAUGAGGAUAUGUACAGACUUCGGUCUGUACAGAAGGCAUAAAAA [SS1 - 1063] | 0.349 µM | 0.0712 µM | – | –

Row | Sequence | apparent KD of MS2 coat protein [1] | apparent KD of MS2 coat protein [2] | apparent KD of MS2 coat protein [3] | apparent KD of MS2 coat protein [4]
22 | AAAAGACAUGAGGAUCACCCAUGUGAAAACGUAGGAGGAUAUGUCUGGAAACCAGACUGGACAGAAGGCCUGUGUC [SS1 - 32] | 0.0331 µM | 0.0267 µM | – | –
23 | AAAAUAAAAUAAAAGGAUAUAAAAUAAAAAACAUGAGGAUCACCCAUGUAAAAACAUGGGAAAAAAAAGAAGGAAAAAUAAAAAA [SS2: 71 No MS2] | 1.28 µM | 0.603 µM | – | –
24 | AAAAUACAUGAGGAUCACCCAUGUGAAAAUAUGGGAGGAUAUACCGAAAAAAAAAAAAAGGUAGAAGGCCCAAAAA [SS! 1 MT 5] | 0.0692 µM | 0.0171 µM | – | –
25 | AAACCACAUGAGGAUCACCCAUGUAAAAAUAUGGGAGGAUAUCGGAAUAAAAUAAAGAAACGAGAAGGCCUAAAAG [59%, Flamingo, 4] | 0.292 µM | 0.0693 µM | – | –
26 | AAACCACAUGAGGAUCACCCAUGUCCAAAAAAACAAGGAUAUAUAAAAAAAAAAAAAAAAAUAGAAGGUGUAAAAA [<insert title here>] | 0.113 µM | 0.0755 µM | – | –
27 | AAACUGGAGGACAAGGAUAUGUGCUCUACGACAUGAGGAUCACCCAUGUGAGACGUAGUAGUGAAACAGAAGGUGUCCUAUUGUA [Tiarri] | 0.0204 µM | 0.011 µM | – | –
28 | AAAGAAAAACUAGAGGAUAUCCGAAUGGUAACAUGAGGAUCACCCAUGUGAAGAAAGGAACAUGAGGAGAAGGCUAGAAGAAAAA [JL Nando mod 10] | 0.0234 µM | 0.0188 µM | – | –
29 | AAAGAAAAACUAGAGGAUAUCCGAGUGGUAACAUGAGGAUCACCCAUGUGACGAAAGGAACAUGAGGAGAAGGCUAGAAGAAAAA [JL Nando mod 9] | 0.315 µM | 0.0463 µM | – | –
30 | AAAGAAAAACUAGAGGAUAUCUGAGUGGUAACAUGAGGAUCACCCAUGUGAAGAAAGGAGCAUGAGGAGAAGGCUAGAAGAAAAA [JL Nando mod 22] | 0.059 µM | 0.0117 µM | – | –
31 | AAAGACGUGCAUCAGGAUAUGUUCCGAGACACAUGAGGAUCACCCAUGUGGACGAAGUCUCGGGCACAGAAGGGAUCACUCAUAA [Latibe] | 0.0214 µM | 0.0154 µM | – | –
32 | AAAUAAAGGACUAAGGAUAUAUCACAUGAAACAUGAGGAUCACCCAUGUAAUAAUACAAAGGGUGAUAGAAGGUAGUCCACAAACA [Pariah 5 (MS2 Riboswitches - Same State 2)] | 0.0371 µM | 0.0149 µM | – | –
33 | AAAUAAAUAAAAAAGGAUAUAAAAAAGUACACAUGAGGAUCACCCAUGUGUACACAUGGGUGAUCCUAGAAGGAAAAAUAAAAAA [SS2: 91 No MS2] | 0.0733 µM | 0.117 µM | – | –
34 | AAAUAAAUGACUAAGGAUAUAUCAUAAGAAACAUGAGGAUCACCCAUGUAAUAAUAAAAAGGGUGAUAGAAGGUAGUCAACAAAC [74%, More Paria 4] | 0.114 µM | 0.0198 µM | – | –
35 | AAAUAAAUGACUAAGGAUAUCUCAGAGAAAACAUGAGGAUCACCCAUGUAAUAAUAACAUGUGUGAGAGAAGGUAGUCAACAAAC [Same State 2.4 (Pariah 4 -changed stack on 9nt hairpin)] | 0.0701 µM | 0.0161 µM | – | –
36 | UAAAGACAUGAGGAUCACCCAUGUGAGGAUAUCGGAGACAACAGAACAUCAAGUACAAUGAGAAGGCACAGAAA [JR_Exc001_Sub018] | – | – | 0.0471 µM | 0.0406 µM
37 | UACUUACAUGAGGAUCACCCAUGUCAGGAUAUGCGCUCAGAGUAUAUAUAAGAUUCAAGCAGAAGGGACACUAA [JR_Exc001_Sub204] | – | – | 0.0372 µM | 0.0348 µM
38 | UCACACCUAGGAUAUACAUGAGGAUCACCCAUGUGGCACUCCGCAGGCAUUGCUCCCAGUAGAAGGAGGACACG [Veterexe] | – | – | 0.0238 µM | 0.0189 µM
39 | UCCGGAUUAGGAUAUACAUGAGGAUCACCCAUGUGACAAAAAUAUUUUACAAAACCAUGUAGAAGGAAUCCGGA [E3-1.3] | – | – | 0.408 µM | 0.125 µM
40 | UCCUCACAUGAGGAUCACCCAUGUCAGGAUAUCUCACAGCGAAAGAAUAAAGGCUGCAAGAGAAGGGACACAAA [Raisa] | – | – | 0.0442 µM | 0.0227 µM
41 | UCCUUACAUGAGGAUCACCCAUGUUAGGAUAUCUCGCUUGCGCAAUCACAGCGCAAGCAGAGAAGGGACGCGGG [Ledige] | – | – | 0.0291 µM | 0.0228 µM
42 | UUUAAGUGAGGAUAUACGAAUAGUAAGUAAGUAUAACAGACGUAGAAGGCACAUGAGGAUCACCCAUGUAAAUA [JR_Exc004_Sub305] | – | – | 0.0186 µM | 0.0244 µM
